B1: mRNA-splicing (parent)
chain: AGUUGCUGCUGGGAGCUCCAGCACAGUGAAAUGGACAGAAGGGCAGAGCAA

Variants of: B1
Test: exon inclusion enrichment index; higher = more inclusion; WT1 exon 5 minigene, HEK293

In order of rising “exon inclusion enrichment index” value:
1. AGUUCGCACAGGGAGCUCCAGCACAGUGAAAUGGACAGAAGGGCAGAGCAA [G5C C6G U7C G8A U10A]  0.449
2. AGUUCGCGGGGGGAGCUCCAGCACAGUGAAAUGGACAGAAGGGCAGAGCAA [G5C C6G U7C C9G U10G]  0.749
3. AGUUCGCGCCGGGAGCUCCAGCUUAGUGAAAUGGACAGAAGGGCAGAGCAA [G5C C6G U7C U10C A23U C24U]  0.822
4. AGUUCGCGCCGGGAGCUCCGGCACAGUGAAAUGGACAGAAGGGCAGAGCAA [G5C C6G U7C U10C A20G]  0.887
5. AGUUCGCGCAGGGAGCUCCAGCACAGUGAAAUGGACAGAAGGGCAGAGCAA [G5C C6G U7C U10A]  1.02
6. AGUUCGCGCCGGGUGCUCCAGCACAGUGAAAUGGACAGAAGGGCAGAGCAA [G5C C6G U7C U10C A14U]  1.05
7. AGUUCGCGCCGGGGUCUCCAGCACAGUGAAAUGGACAGAAGGGCAGAGCAA [G5C C6G U7C U10C A14G G15U]  1.21
8. AGUUCGCGCCGGGUACUCCAGCACAGUGAAAUGGACAGAAGGGCAGAGCAA [G5C C6G U7C U10C A14U G15A]  1.41
9. AGUUCGCGCCGGGUUCUCCAGCACAGUGAAAUGGACAGAAGGGCAGAGCAA [G5C C6G U7C U10C A14U G15U]  1.46
10. AGUUCGCGCCGGGGCCUCCAGCACAGUGAAAUGGACAGAAGGGCAGAGCAA [G5C C6G U7C U10C A14G G15C]  1.64
11. AGUUCGCGCCGGGAGCUCCAGCACAGUGUAAUGGACAGAAGGGCAGAGCAA [G5C C6G U7C U10C A29U]  1.68
12. AGUUCGCGAGGGGAGCUCCAGCACAGUGAAAUGGACAGAAGGGCAGAGCAA [G5C C6G U7C C9A U10G]  1.77
13. AGUUCGCGCCGGGUCCUCCAGCACAGUGAAAUGGACAGAAGGGCAGAGCAA [G5C C6G U7C U10C A14U G15C]  1.8
14. AGUUCGCGCCGGGGGCUCCAGCACAGUGAAAUGGACAGAAGGGCAGAGCAA [G5C C6G U7C U10C A14G]  1.93
15. AGUUCGCGAAGGGAGCUCCAGCACAGUGAAAUGGACAGAAGGGCAGAGCAA [G5C C6G U7C C9A U10A]  1.93
16. AGUUCGCGCCGGGAGCUCCAGCGUAGUGAAAUGGACAGAAGGGCAGAGCAA [G5C C6G U7C U10C A23G C24U]  1.96
17. AGUUCGCGCCGGGCGCUCCAGCACAGUGAAAUGGACAGAAGGGCAGAGCAA [G5C C6G U7C U10C A14C]  1.99
18. AGUUCGCGCCGGGAGCUCCAGCCUAGUGAAAUGGACAGAAGGGCAGAGCAA [G5C C6G U7C U10C A23C C24U]  2.07
19. AGUUCGCGCCGGGGACUCCAGCACAGUGAAAUGGACAGAAGGGCAGAGCAA [G5C C6G U7C U10C A14G G15A]  2.07
20. AGUUCGCGCAAGGAGCUCCAGCACAGUGAAAUGGACAGAAGGGCAGAGCAA [G5C C6G U7C U10A G11A]  2.25
21. AGUUCGCGCCGGGAGCUCCAGCUAAGUGAAAUGGACAGAAGGGCAGAGCAA [G5C C6G U7C U10C A23U C24A]  2.3
22. AGUUCGCAGCGGGAGCUCCAGCACAGUGAAAUGGACAGAAGGGCAGAGCAA [G5C C6G U7C G8A C9G U10C]  2.31
23. AGUUCGAACCGGGAGCUCCAGCACAGUGAAAUGGACAGAAGGGCAGAGCAA [G5C C6G U7A G8A U10C]  2.49
24. AGUUCGCUGCGGGAGCUCCAGCACAGUGAAAUGGACAGAAGGGCAGAGCAA [G5C C6G U7C G8U C9G U10C]  2.53
25. AGUUCGCGGCGGGAGCUCCAGCACAGUGAAAUGGACAGAAGGGCAGAGCAA [G5C C6G U7C C9G U10C]  2.62
26. AGUUCGCUACGGGAGCUCCAGCACAGUGAAAUGGACAGAAGGGCAGAGCAA [G5C C6G U7C G8U C9A U10C]  2.74
27. AGUUCGCCUCGGGAGCUCCAGCACAGUGAAAUGGACAGAAGGGCAGAGCAA [G5C C6G U7C G8C C9U U10C]  2.8
28. AGUUCGCGGAGGGAGCUCCAGCACAGUGAAAUGGACAGAAGGGCAGAGCAA [G5C C6G U7C C9G U10A]  2.85
29. AGUUCGCGCCGGGAGCUCCAGCACAGUGCUAUGGACAGAAGGGCAGAGCAA [G5C C6G U7C U10C A29C A30U]  3.02
30. AGUUCGCAACGGGAGCUCCAGCACAGUGAAAUGGACAGAAGGGCAGAGCAA [G5C C6G U7C G8A C9A U10C]  3.14
31. AGUUCGCGCAUGGAGCUCCAGCACAGUGAAAUGGACAGAAGGGCAGAGCAA [G5C C6G U7C U10A G11U]  3.26
32. AGUUCGCACCGGGAGCUCCAGCACAGUGAAAUGGACAGAAGGGCAGAGCAA [G5C C6G U7C G8A U10C]  3.31
33. AGUUCGCGCCGGGAGCUCCCGCACAGUGAAAUGGACAGAAGGGCAGAGCAA [G5C C6G U7C U10C A20C]  3.4
34. AGUUCGCGCACGGAGCUCCAGCACAGUGAAAUGGACAGAAGGGCAGAGCAA [G5C C6G U7C U10A G11C]  3.41
35. AGUUCGCGCCGGGAGCUCCAGCCAAGUGAAAUGGACAGAAGGGCAGAGCAA [G5C C6G U7C U10C A23C C24A]  3.49
36. AGUUCGCGCCGGGAGCUCCUGCACAGUGAAAUGGACAGAAGGGCAGAGCAA [G5C C6G U7C U10C A20U]  3.58
37. AGUUCGCGCCGGGAGCUCCAGCUGAGUGAAAUGGACAGAAGGGCAGAGCAA [G5C C6G U7C U10C A23U C24G]  3.71
38. AGUUCGCGCCGGGAGCUCCAGCACAGUGGAAUGGACAGAAGGGCAGAGCAA [G5C C6G U7C U10C A29G]  3.72
39. AGUUCGCGCCGGGAGCUCCAGCACAGUGAAAUGGACAGAAGGGCAGAGCAA [G5C C6G U7C U10C]  3.75
40. AGUUCGCGCCGGGAGCUCCAGCACAGUGCCAUGGACAGAAGGGCAGAGCAA [G5C C6G U7C U10C A29C A30C]  3.82
41. AGUUCGCGACGGGAGCUCCAGCACAGUGAAAUGGACAGAAGGGCAGAGCAA [G5C C6G U7C C9A U10C]  4
42. AGUUCGCGCCGGGAGCUCCAGCACCUUGAAAUGGACAGAAGGGCAGAGCAA [G5C C6G U7C U10C A25C G26U]  4.06
43. AGUUCGCGCCGGGAGCUCCAGCACGUUGAAAUGGACAGAAGGGCAGAGCAA [G5C C6G U7C U10C A25G G26U]  4.09
44. AGUUCGCGCCGGGAGCUCCAGCACCCUGAAAUGGACAGAAGGGCAGAGCAA [G5C C6G U7C U10C A25C G26C]  4.35
45. AGUUCGCGCCGGGAGCUCCAGCGAAGUGAAAUGGACAGAAGGGCAGAGCAA [G5C C6G U7C U10C A23G C24A]  4.41
46. AGUUCGCGCCGGGAGCUCCAGCACCAUGAAAUGGACAGAAGGGCAGAGCAA [G5C C6G U7C U10C A25C G26A]  4.67
47. AGUUCGCGCCGGGAGCUCCAGCACGCUGAAAUGGACAGAAGGGCAGAGCAA [G5C C6G U7C U10C A25G G26C]  4.8
48. AGUUCGCGCCGGGAGCUCCAGCGGAGUGAAAUGGACAGAAGGGCAGAGCAA [G5C C6G U7C U10C A23G C24G]  4.88
49. AGUUCGCGCCGGGAGCUCCAGCACAGUGCGAUGGACAGAAGGGCAGAGCAA [G5C C6G U7C U10C A29C A30G]  5.17
50. AGUUCGCGCCGGGAGCUCCAGCCGAGUGAAAUGGACAGAAGGGCAGAGCAA [G5C C6G U7C U10C A23C C24G]  5.29
51. AGUUCGCGCCGGGAGCUCCAGCACGAUGAAAUGGACAGAAGGGCAGAGCAA [G5C C6G U7C U10C A25G G26A]  5.6

— the RNAGym collection of RNA variant scans (doi:10.1101/gr.219683.116)
